Test results published in US20200024330A1.

Assays:
Experiment in all cases: cell-based or functional assay
[1] = target: HIV-1 Env of isolate MGRM-C-009 (HIV-1)
[2] = target: HIV-1 Env of isolate 92WR024 (HIV-1)
[3] = target: HIV-1 Env of isolate MGRM-D-008 (HIV-1)
[4] = target: HIV-1 Env of isolate MGRM-A-011 (clade A), on pseudovirus (HIV-1)
[5] = target: HIV-1 Env of isolate MGRM-D-014 (HIV-1)
[6] = target: HIV-1 Env of isolate MGRM-D-013 (HIV-1)
[7] = target: HIV-1 Env of isolate 92UG031 (HIV-1)
[8] = target: HIV-1 Env of isolate MGRM-A-013 (clade A), on pseudovirus (HIV-1)
[9] = target: HIV-1 Env of isolate MGRM-C-012 (HIV-1)
[10] = target: HIV-1 Env of isolate 92WR026 (HIV-1)
[11] = target: HIV-1 Env of isolate MGRM-F1-015 (subtype F), on pseudovirus (HIV-1)
[12] = target: HIV-1 93UG077 envelope glycoprotein (Env) (HIV-1)
[13] = target: HIV-1 92RW020 envelope glycoprotein (Env) (HIV-1)
[14] = target: HIV-1 Env of isolate MGRM-G-015 (subtype G) (HIV-1)
[15] = target: HIV-1 Env of isolate MGRM-G-014 (subtype G) (HIV-1)
[16] = target: HIV-1 Env of isolate MGRM-G-009 (subtype G) (HIV-1)

Chain of PGT-144 (4970_K22) (antibody) (VH): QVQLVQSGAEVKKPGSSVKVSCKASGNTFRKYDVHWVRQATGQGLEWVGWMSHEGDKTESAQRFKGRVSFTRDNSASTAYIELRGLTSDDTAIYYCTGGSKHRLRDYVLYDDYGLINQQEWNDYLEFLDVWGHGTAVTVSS
Chain of PGT-144 (4970_K22) (antibody) (VL): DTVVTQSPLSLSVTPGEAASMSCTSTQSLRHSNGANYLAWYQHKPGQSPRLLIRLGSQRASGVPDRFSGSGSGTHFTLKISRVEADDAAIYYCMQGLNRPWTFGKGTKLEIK
Chain of PGT-142 (4995_E20) (antibody) (VH): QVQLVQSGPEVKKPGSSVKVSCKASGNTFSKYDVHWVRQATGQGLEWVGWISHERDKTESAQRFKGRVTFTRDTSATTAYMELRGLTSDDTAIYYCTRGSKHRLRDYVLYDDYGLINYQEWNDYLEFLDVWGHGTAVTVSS
Chain of PGT-142 (4995_E20) (antibody) (VL): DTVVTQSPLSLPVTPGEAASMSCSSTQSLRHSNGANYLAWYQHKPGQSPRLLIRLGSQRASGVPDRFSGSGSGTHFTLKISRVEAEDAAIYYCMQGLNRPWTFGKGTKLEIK
Chain of PGT-143 (4980_N08) (antibody) (VH): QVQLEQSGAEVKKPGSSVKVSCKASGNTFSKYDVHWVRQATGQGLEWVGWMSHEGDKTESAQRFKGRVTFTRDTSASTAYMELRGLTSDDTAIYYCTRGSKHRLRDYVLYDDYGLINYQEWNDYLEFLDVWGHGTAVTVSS
Chain of PGT-143 (4980_N08) (antibody) (VL): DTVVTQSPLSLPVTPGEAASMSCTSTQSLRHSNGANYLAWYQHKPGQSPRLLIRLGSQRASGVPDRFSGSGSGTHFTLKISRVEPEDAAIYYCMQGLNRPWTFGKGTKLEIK
Chain of 5345_I01 (PGT-137) (antibody) (VH): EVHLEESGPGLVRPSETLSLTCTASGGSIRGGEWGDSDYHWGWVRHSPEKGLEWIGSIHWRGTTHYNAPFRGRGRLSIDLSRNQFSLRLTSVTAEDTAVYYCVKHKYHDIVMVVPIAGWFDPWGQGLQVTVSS
Chain of 5345_I01 (PGT-137) (antibody) (VL): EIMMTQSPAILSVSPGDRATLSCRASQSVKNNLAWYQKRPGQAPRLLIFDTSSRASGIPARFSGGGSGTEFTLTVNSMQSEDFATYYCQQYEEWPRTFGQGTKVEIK
Chain of PGT-141 (4964_G22; 4993_K13) (antibody) (VH): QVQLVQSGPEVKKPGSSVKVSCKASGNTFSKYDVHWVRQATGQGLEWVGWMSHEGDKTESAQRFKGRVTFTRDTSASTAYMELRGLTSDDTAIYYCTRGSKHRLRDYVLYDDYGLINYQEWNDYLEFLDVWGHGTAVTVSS

5345_I01 (PGT-137) (antibody)
IC50 [1]: > 50 µg/mL
neutralization IC50 [2]: > 50 µg/mL
IC50 [3]: > 50 µg/mL
IC50, single-round pseudovirus neutralization [4]: > 50 µg/mL
IC50 [5]: > 50 µg/mL
IC50 [6]: > 50 µg/mL
neutralization IC50 [7]: > 50 µg/mL
IC50, single-round pseudovirus neutralization [8]: 49.2 µg/mL
IC50 [9]: 0.102 µg/mL
neutralization IC50 [10]: 0.092 µg/mL
IC50, pseudovirus neutralization [11]: > 50 µg/mL

PGT-121 (antibody)
IC50 neutralization [12]: 0.0459 µg/mL
IC50 (µg/mL), pseudovirus neutralization [2]: > 50 µg/mL
IC50 neutralization [13]: 0.0063 µg/mL
IC50 (µg/mL), pseudovirus neutralization [7]: > 50 µg/mL
IC50 (µg/mL), pseudovirus neutralization [10]: 0.014 µg/mL

PGT-122 (antibody)
IC50 neutralization [12]: 0.191 µg/mL
IC50 (µg/mL), pseudovirus neutralization [2]: > 50 µg/mL
IC50 neutralization [13]: 0.0072 µg/mL
IC50 (µg/mL), pseudovirus neutralization [7]: > 50 µg/mL
IC50 (µg/mL), pseudovirus neutralization [10]: 0.036 µg/mL

PGT-141 (4964_G22; 4993_K13) (antibody)
neutralization IC50 [14]: > 50 µg/mL
neutralization IC50 [15]: 0.222 µg/mL
neutralization IC50 [16]: 1.89 µg/mL

PGT-142 (4995_E20) (antibody)
neutralization IC50 [14]: > 50 µg/mL
neutralization IC50 [15]: 0.076 µg/mL
neutralization IC50 [16]: 2.81 µg/mL

PGT-143 (4980_N08) (antibody)
neutralization IC50 [14]: > 50 µg/mL
neutralization IC50 [15]: 0.107 µg/mL
neutralization IC50 [16]: 2.97 µg/mL

PGT-144 (4970_K22) (antibody)
neutralization IC50 [14]: > 50 µg/mL
neutralization IC50 [15]: 0.562 µg/mL
neutralization IC50 [16]: > 50 µg/mL

PGV04 (antibody)
neutralization IC50 [14]: 0.333 µg/mL
IC50 (µg/mL), pseudovirus neutralization [3]: 3.56 µg/mL
IC50 (µg/mL), pseudovirus neutralization [5]: 0.194 µg/mL
IC50 (µg/mL), pseudovirus neutralization [6]: 0.088 µg/mL
IC50 [7]: 4.46 µg/mL
neutralization IC50 [15]: 0.056 µg/mL
neutralization IC50 [16]: 0.043 µg/mL

VRC01 (antibody)
neutralization IC50 [14]: 0.548 µg/mL
IC50, pseudovirus neutralization [5]: 0.332 µg/mL
IC50, pseudovirus neutralization [6]: 0.087 µg/mL
neutralization IC50 [15]: 0.056 µg/mL
neutralization IC50 [16]: 0.073 µg/mL
